Publication PMC5390082 (Scientific Reports, 2015)

Target: T1, Trifunctional enzyme (TFP), ECHA/ECHB, immunopurified from human macrophage extract (human (endogenous in THP-1), UniProt P40939 37-763; P55084 34-474)
T1 construct: also called immunopurified human TFP
Assay: SPR; Biacore 3000; […]; 20 mM Tris-HCl pH 8.0, 50 mM NaCl, 5 mM EDTA, 0.005% P20, 1 mM DTT; […]
Conditions: both partners purified

T1 sequence (P40939 37-763, chain 1 of 2): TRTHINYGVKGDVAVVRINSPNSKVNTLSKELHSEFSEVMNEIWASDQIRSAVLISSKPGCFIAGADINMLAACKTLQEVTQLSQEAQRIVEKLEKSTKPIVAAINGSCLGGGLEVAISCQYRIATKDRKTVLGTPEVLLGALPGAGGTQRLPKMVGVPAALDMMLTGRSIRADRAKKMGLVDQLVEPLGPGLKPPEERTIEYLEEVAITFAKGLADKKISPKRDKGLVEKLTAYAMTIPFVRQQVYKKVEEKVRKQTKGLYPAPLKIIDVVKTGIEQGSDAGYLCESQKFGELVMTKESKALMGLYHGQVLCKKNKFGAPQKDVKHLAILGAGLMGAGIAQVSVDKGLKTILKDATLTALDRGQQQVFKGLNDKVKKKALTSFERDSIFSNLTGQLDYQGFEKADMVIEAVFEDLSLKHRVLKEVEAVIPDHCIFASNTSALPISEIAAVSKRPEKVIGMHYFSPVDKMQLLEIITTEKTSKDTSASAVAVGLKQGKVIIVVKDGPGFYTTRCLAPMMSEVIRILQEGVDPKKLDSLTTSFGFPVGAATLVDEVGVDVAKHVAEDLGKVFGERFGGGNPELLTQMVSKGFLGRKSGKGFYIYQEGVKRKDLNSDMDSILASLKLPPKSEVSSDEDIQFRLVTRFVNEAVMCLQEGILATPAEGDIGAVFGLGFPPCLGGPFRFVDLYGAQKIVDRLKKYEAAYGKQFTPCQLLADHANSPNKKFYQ
T1 sequence (P55084 34-474, chain 2 of 2): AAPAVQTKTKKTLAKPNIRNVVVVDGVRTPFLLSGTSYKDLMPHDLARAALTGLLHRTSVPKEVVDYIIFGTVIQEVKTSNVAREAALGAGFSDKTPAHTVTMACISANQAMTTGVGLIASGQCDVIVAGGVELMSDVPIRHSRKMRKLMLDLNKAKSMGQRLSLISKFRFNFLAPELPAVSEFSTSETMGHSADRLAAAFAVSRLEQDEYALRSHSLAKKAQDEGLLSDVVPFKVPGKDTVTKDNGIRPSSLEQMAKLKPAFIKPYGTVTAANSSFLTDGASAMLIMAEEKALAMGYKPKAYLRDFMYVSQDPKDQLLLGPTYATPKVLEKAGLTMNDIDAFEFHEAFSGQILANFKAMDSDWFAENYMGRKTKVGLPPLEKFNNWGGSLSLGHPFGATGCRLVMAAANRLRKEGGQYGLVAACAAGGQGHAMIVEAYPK

B1: Mycobacterium tuberculosis protein tyrosine phosphatase PtpA wt (enzyme)
chain: MSDPLHVTFVCTGNICRSPMAEKMFAQQLRHRGLGDAVRVTSAGTGNWHVGSCADERAAGVLRAHGYPTDHRAAQVGTEHLAADLLVALDRNHARLLRQLGVEAARVRMLRSFDPRSGTHALDVEDPYYGDHSDFEEVFAVIESALPGLHDWVDERLARNGPS
binding result: binds
